Sequences and labels used below:
B1: SPSB1 (parent)
chain: DMRDPTYRPLKQELQGLDYCKPTR

The results in this text go back to the supplement of paper PMC10567573.
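Note: lentivirally expressed fusions sorted by FACS into six bins by GFP to DsRed ratio, PSI derived from sequencing read proportions per bin multiplied by bin number.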

In this series the parent is B1. The experiment in a line: protein stability index of a GFP-peptide fusion (GPS, HEK-293T) (PSI 1-6); higher = more stable. As to conditions: c terminus: a fixed tail appended.
On to DMRDPTYGPLKQELQGLDYCKPTR, for which the protein stability index amounted to 3.43. DMRDPTYDPLKQELQGLDYCKPTR: the protein stability index is 3.95. For DMRDPTYNPLKQELQGLDYCKPTR the value was 3.46. In the case of DMRDPTYMPLKQELQGLDYCKPTR it was 3.5; in that of DMRDMTYRPLKQELQGLDYCKPTR, 3.57. For DMRDNTYRPLKQELQGLDYCKPTR the value was 2.93. Turning to DMRDVTYRPLKQELQGLDYCKPTR, the protein stability index stood at 3.01. In the case of DMRDETYRPLKQELQGLDYCKPTR, the protein stability index is 3.65. In the case of DMRDHTYRPLKQELQGLDYCKPTR it was 3.88; in that of DMKDPTYRPLKQELQGLDYCKPTR, 3.2; in that of DMPDPTYRPLKQELQGLDYCKPTR, 3.36. In the case of DMDDPTYRPLKQELQGLDYCKPTR it was 2.59; in that of DMHDPTYRPLKQELQGLDYCKPTR, 3.08; in that of DMEDPTYRPLKQELQGLDYCKPTR, 3.84.

For the variant DMFDPTYRPLKQELQGLDYCKPTR, the protein stability index was found to be 2.92. For the variant DMNDPTYRPLKQELQGLDYCKPTR, the protein stability index worked out at 3.19.

Turning to DMRDPTYRPLKQELQGLDYCKTTR, the protein stability index came out at 3.07.

As to DMRDPTYRPLKQELQGLDYCKNTR, the protein stability index came to 3.92. For DMRDPTYRPLKQELQGLDYCKITR, the protein stability index was 2.29.

Take DMRDPTYRPLKQELQGLDYCKLTR: the protein stability index came out at 3.18.

Consider DMRDPTYRPHKQELQGLDYCKPTR, for which the protein stability index came to 3.11. In the case of DMRDPTYRPQKQELQGLDYCKPTR it was 3.68. For the variant DMRDPTYRPLKQELQGLDYCKPTK, the protein stability index came to 3.09.

Consider DMRDPTYRPLKQELQGLDYCKPTE, for which the protein stability index is 4.56. As to DMRDPTYRPLKQELQGLDYCKPTC, the protein stability index is 1.93. For DMRDPKYRPLKQELQGLDYCKPTR the value was 3.47; for DMRDPLYRPLKQELQGLDYCKPTR, 2.71. With DMRDPPYRPLKQELQGLDYCKPTR, the protein stability index was 3.57. Consider WMRDPTYRPLKQELQGLDYCKPTR, for which the protein stability index is 1.78. For AMRDPTYRPLKQELQGLDYCKPTR the value was 2.45; for NMRDPTYRPLKQELQGLDYCKPTR, 3.12; for MMRDPTYRPLKQELQGLDYCKPTR, 3.39.

Turning to GMRDPTYRPLKQELQGLDYCKPTR, the protein stability index is 2.65.

Consider EMRDPTYRPLKQELQGLDYCKPTR, for which the protein stability index was 3.53. For HMRDPTYRPLKQELQGLDYCKPTR the value was 2.94; for DMRDPTYRPLKQELNGLDYCKPTR, 3.52; for DMRDPTYRPLKQELMGLDYCKPTR, 3.33. In the case of DMRDPTYRPLKQELQGGDYCKPTR it was 3.51; in that of DMRDPTYRPLKQELQGADYCKPTR, 3.82; in that of DMRDPTYRPLKQELQGFDYCKPTR, 3.08.

Take DHRDPTYRPLKQELQGLDYCKPTR: the protein stability index turned out to be 3.64. Consider DIRDPTYRPLKQELQGLDYCKPTR, for which the protein stability index stood at 3.19. DLRDPTYRPLKQELQGLDYCKPTR: the protein stability index was found to be 3.01. In the case of DSRDPTYRPLKQELQGLDYCKPTR it was 3.77; in that of DMRDPTMRPLKQELQGLDYCKPTR, 2.64; in that of DMRDPTWRPLKQELQGLDYCKPTR, 3.1. For DMRDPTLRPLKQELQGLDYCKPTR the value was 3.25. In the case of DMRDPTCRPLKQELQGLDYCKPTR it was 3.14.

With DMRDPTHRPLKQELQGLDYCKPTR, the protein stability index turned out to be 2.79. Regarding DMRDPTKRPLKQELQGLDYCKPTR, the protein stability index stood at 3.31. With DMRDPTYRPLKQELQGLDYCKPKR, the protein stability index was found to be 3.9. For DMRDPTYRPLKQELQGLDYCKPQR the value was 3.47; for DMRDPTYRPLKQELQGLDYCKPER, 3.92. Regarding DMRDPTYRPLKQELQGLDYCKPPR, the protein stability index is 4.33. As for DMRDPTYRPLKQELQGLDNCKPTR, the protein stability index was found to be 4.92. For DMRDPTYRPLKQELQGLDKCKPTR the value was 3.99; for DMRDPTYRPLKQELQGLDRCKPTR, 4.4. Take DMRDPTYRPLKQELQGLDICKPTR: the protein stability index came out at 3.78. DMRDPTYRPLKQMLQGLDYCKPTR: the protein stability index amounted to 2.48. On to DMRDPTYRPLKQCLQGLDYCKPTR, for which the protein stability index is 2.91. DMRDPTYRPLKQWLQGLDYCKPTR: the protein stability index was determined as 2.44. As for DMRDPTYRPLKQILQGLDYCKPTR, the protein stability index turned out to be 2.62. For DMRDPTYRPLKQPLQGLDYCKPTR the value was 3.68; for DMRDPTYRPLKQELQLLDYCKPTR, 3.45. Regarding DMRDPTYRPLKQELQDLDYCKPTR, the protein stability index stood at 3.34. For DMRRPTYRPLKQELQGLDYCKPTR the value was 3.53. In the case of DMRVPTYRPLKQELQGLDYCKPTR it was 2.81; in that of DMRDPTYRPLKQEVQGLDYCKPTR, 4.05. In the case of DMRDPTYRPLKQEWQGLDYCKPTR it was 2.96. On to DMRDPTYRPLKQEDQGLDYCKPTR, for which the protein stability index is 3.83. On to DMRDPTYRPLKQEPQGLDYCKPTR, for which the protein stability index was found to be 3.89. For DMRDPTYRPLFQELQGLDYCKPTR the value was 3.24; for DMRDPTYRPLIQELQGLDYCKPTR, 2.88; for DMRDPTYRPLDQELQGLDYCKPTR, 3.85. For DMRDPTYRPLQQELQGLDYCKPTR, the protein stability index was determined as 3.62. In the case of DMRDPTYRYLKQELQGLDYCKPTR it was 2.67; in that of DMRDPTYRMLKQELQGLDYCKPTR, 2.6; in that of DMRDPTYRALKQELQGLDYCKPTR, 2.69.

Regarding DMRDPTYRVLKQELQGLDYCKPTR, the protein stability index came out at 3.19. For DMRDPTYRPLKQELQGLDYCMPTR, the protein stability index amounted to 2.39. In the case of DMRDPTYRPLKQELQGLDYCPPTR, the protein stability index was 3.95. On to DMRDPTYRPLKQELQGLDYCGPTR, for which the protein stability index stood at 3.66.

Take DMRDPTYRPLKQELQGLDYCFPTR: the protein stability index was 1.6. Turning to DMRDPTYRPLKQELQGLDYCCPTR, the protein stability index turned out to be 2.44.

DMRDPTYRPLKQELQGLDYCNPTR: the protein stability index was determined as 1.78.

For DMRDPTYRPLKDELQGLDYCKPTR, the protein stability index was 3.45.

With DMRDPTYRPLKEELQGLDYCKPTR, the protein stability index was 2.87. In the case of DMRDPTYRPLKMELQGLDYCKPTR it was 2.23. In the case of DMRDPTYRPLKVELQGLDYCKPTR it was 2.59.

With DMRDPTYRPLKQELQGLAYCKPTR, the protein stability index was 3.81. Take DMRDPTYRPLKQELQGLSYCKPTR: the protein stability index was 3.48. For DMRDPTYRPLKQELQGLQYCKPTR the value was 3.83; for DMRDPTYRPLKQELQGLHYCKPTR, 3.73.

Regarding DMRDPTYRPLKQELQGLFYCKPTR, the protein stability index is 2.67.
